# Earlier results, collected in publication PMC12455926.
# pKd: −log10 of the molar value.
# Target: AXL (Homo sapiens) (UniProt P30530)
substance,measurement,value
Spike protein NTD (from UniProt P0DTC2),pKd,6.05
